# The nanobody polyreactivity screen of Harvey et al. (2022)
# Test: yeast display, Sf9 membrane polyspecificity reagent, FACS + sequencing; frameworks hold sequencing errors
# Outline: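 In a synthetic yeast display library (Saccharomyces cerevisiae BJ5465), nanobody expression was induced with galactose for 36–48 hours. FACS gates were set low and high (top ~1%) using anti-HA fluorescence for expression and streptavidin fluorescence for binding of the Sf9 membrane reagent. Each polyreactivity label is drawn from the gate of origin.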
row,Sequence,polyreactivity (PSR sort gate)
1,QVQLVESGGGLVQAGGILRLSCAASGRIFYYNTMGWYRQAPGKERELVAAITRGGGRTYYADSVKGRFTISRDNAKNTVYLQMNSLKPEDTAVYYCNTRSTLGYYWGQGTQVTVSS,high polyreactivity
2,QVQLVESGGGLVQAGGILRLSCAASGRTFVLNAMGRYRQAPGKERELVAAITSGGSTYYADSVKGRFTISRDNAKNTVYLQMNMLKPEDTAVYYCAVTYKGDSSWPGDYWGQCTQVTVSS,low polyreactivity
3,QVQLVESGGGLVQAGGILRLSCAASGRTFYYYAMGWYRQAPGKERELVAAISWGGGRTYYADSVKGRFTISRDNAKNTVYLHMNSLKPEDTAVYYCDTTAYNGYDYWGQGTQVTVSS,high polyreactivity
4,QVQLVESGGGLVQAGGILRLSCAASGSIFLGNAMGWYRQAPGKERELVAVINSGGDTNYADSVKGRFTISRDNAKNTVYLQMNSLKPEDTAVYYCARRKGKWDSYGGWGQGTQETVSS,low polyreactivity
5,QVQLVESGGGLVQAGGILRLSCAASGSIFPYYAMGWYRQAPGKERELVATITSRGGSTYYADSVKGRFTISRDNAKNTVYLQMNSLKPEDTAVYYCNTLQPYLYDYWGQGTQVTVSS,high polyreactivity
6,QVQLVESGGGLVQAGGILRLSCAASGSIFYRNAMGWYRQAPGKERELVAAISARGGRTNYADSVKGRFTISRDNAKYTVYLQMNSLKPEDTAVYYCNTADSWYHRSQAYDYWGQGTQVTVSS,high polyreactivity
7,QVQLVESGGGLVQAGGILRLSCAASGSTFGRYAIGWYRPAPGTERELVAAISRRGGSTYYADSVKWRFTISRDNAKNNVYLQMYSLKPVDTAVYYCAADDVRTSGCHFDYWGDGTQVTVSS,high polyreactivity
8,QVQLVESGGGLVQAGGILRLSCAASGSTFSSNAMGWYRQAPGKERELVAAISKRGGRTYYADSVKGRFTISRDNAKNTVYLQMNSLKPEDTAVYYCAAEYWVPAWKFGYEYWGQGTQVTVSS,high polyreactivity
9,QVQLVESGGGLVQAGGILRLSCAASGSTFTDSDMGWYRQAPGKERELVAAITSGGSTNYADSVKGRFTISLDNAKYTVYLPMNSLKPEDSAVYYCAAADADRKYDYWGQGTQVTVSS,low polyreactivity
10,QVQLVESGGGLVQAGGILRLSCAASGSTISYNAMGWYRQAPGKERELVAAINYSGGNTNYADSVKGRFTISRDNAKNTVYLQMNSLKPEDTAVYYCAARWWSGYGYWGQGTQVTVSS,high polyreactivity
11,QVQLVESGGGLVQAGGILRLSCASSGNIFDRYAMGWYRQAPGKERELVAGITWSGGSTYYADSVKGRFTISRDNEKNTVYLQMNSLKPEDTAVYYCGQANYYWGQGTQVTVSA,low polyreactivity
12,QVQLVESGGGLVQAGGILRLSCSASGRTLPAYVMGWYRQAPGKERELVAAITSGGGGTYFADSVKGRFTISRDNAKNTVYLQMNSMKPEDTAVYYCATTGNFFHYVYDFDYYYWGQGTQVTLSS,low polyreactivity
13,QVQLVESGGGLVQAGGILRLSSAASGRTILSYAMGWYRQAPGKERELVAAITRSGGGTFYADSVKGRFTLSRDNAKNTVYVQMNSLKPEDTAVYYCAARYYNYASPTRFKYNYWGQGTQVTVSS,high polyreactivity
14,QVQLVESGGGLVQAGGILSLSCAASGFIFLYNMGWYRQAPGKEWQLVADISTGVSTNYADSVKGRFTISRDNAKNSVYLQMNSLKPEDTAVYYCAAVYYNGYQYEPWYDYWGQGTQVTVSS,low polyreactivity
15,QVQLVESGGGLVQAGGPLRLSCAASGRIFWPYTMGWYRQTPGKERELVAVITYSGGSTYYADSVKGRFTISRDNAKNTVYFQMNSLKPEDTAVYYCNAGIRFYLHAHGYYWGQGTQVTVSS,high polyreactivity
16,QVQLVESGGGLVQAGGRHRLSCAASGSTLTRNTMGWYRQAPGIQRELVATITRSGGSTYYADSVKGRFTISRDNAKNTVYLQMNSLKPEDTAVYYCAVRRQTFRYVYPGMDYWGQGTQETVSS,high polyreactivity
17,QVQLVESGGGLVQAGGRHRLTCAASGRILGYYAMGWYRQAPGKQRELVAAITRGGTTNYADSVKGRFTISRDNAMNTVYLQKNSQKPEDSAGYYCAADLARYGKRYDFWGQGTQVTLSS,low polyreactivity
18,QVQLVESGGGLVQAGGRLLLSCAASGFIFYSNAMGWYRQAPGKERELVAAISRSGGSTYYADSVKGRFTISRDNAMNTVFLQMNSLKPEDTAVYYCNADYVYRRYGYWGQGTQVNVSS,high polyreactivity
19,QVQLVESGGGLVQAGGRLLLSCAASGFTFPRYVMGWYRQAPGKEREFVAAITFSGGSTYYADSVKGRFTISRDNAKNSVYLQMNSLKPEDTAVYYCAAGASLWRLGLKMGYWGQGTQVTVSS,low polyreactivity
20,QVQLVESGGGLVQAGGRLRFSCAASGFIFRYYAMGCYRQAPGKERELVAAIDYSGGSTNYADSVKGRFTISRDNAKNTVYLQMNSLKPEETAVYYCNAEYTWHRGYDYWGQGTLVTVSS,low polyreactivity
21,QVQLVESGGGLVQAGGRLRFSCAASGSIFEYYTMGWYRQAPGKERELVAAISDGGSTYYADSVKGRFTISRDNAKNTVYLQMNSLKPDDTAFYYCAAEYQQDFWVAVDYWGQGTQLTVSS,low polyreactivity

row,Sequence,polyreactivity (PSR sort gate)
1,QVQLVESGGGLVQAGGRLRIICAASGYIFRFNAMGWYRQAPGKERELVAVITKSGGSTYYADSVKGRFTISRDNAKNTVYLQMNRLKPEDSAVYYCNADRFYIDYTNTYDSIRDYWGQGTQVTVSS,low polyreactivity
2,QVQLVESGGGLVQAGGRLRISCAASGRTFQVYTIGWYRQAPGKERELVAAITWNGGRSRYADSVKGRFTISRDNAKNTVYLQMNRLKPEDTAVYYCNAGSTELGWTWELDYWGQGTQVTVSS,high polyreactivity
3,QVQLVESGGGLVQAGGRLRISCAASGRTFSHNTMGWYRQAPGKERELVAAITGSGASTYYADSVKGRFTISRDNAKNTVYLQMNSLKPEDTAVDYCAKVSRQSWDEYDTWGQGTQVTVSS,low polyreactivity
4,QVQLVESGGGLVQAGGRLRISCAASGSTFKANAMGWYRQSPGKERELVASIRFSAGSTYYADSVKGRFTISRDTAKNTVYLEMNRLKPEDTAVYYCAAGRHVLKRRYDYWGQGTQVTVSS,low polyreactivity
5,QVQLVESGGGLVQAGGRLRISCAASGTIFYSYEMVWYRKAPAKERELVAAITQSGSSTYYADSVKGRFTISRDNAKNTVYLQMNSLKPEDTAVYYCAAVSRRHPTMSDYWGQGTQVTVSS,high polyreactivity
6,QVQLVESGGGLVQAGGRLRLRCAASGHIFYYYTLGWYRQAPGKERELVAGITIGGSTNYADSVKGRFTISRDNAKNTVYLQMNSLKPEDTAVYYCNVVKYVYIYSYWEYYYWGQGTQVTVSS,low polyreactivity
7,QVQLVESGGGLVQAGGRLRLRCAASGSIFEPNAMGWYRQSPWKERELVATIRDSGGRTYYADSVKGRFTISRDNAKNTVYLQMNSLKPEDTAVYYCAARRYLGWFSYRLYDYWGQGTQVTVSS,high polyreactivity
8,QVQLVESGGGLVQAGGRLRLRCAASGSIFYAYDRGWYRQAPGKERELVAAINWSGDSTYYADSVKGRFTISRDNAKNTVDLQMNSLKPEDTALYYCAAVSGSGDSGEYDYWGQGTQVTVSS,low polyreactivity
9,QVQLVESGGGLVQAGGRLRLSCAASGFIFTEYAMGWYRQSPGKERELVAAINSGGRTKYADSVKGRFTISRDNAKNTVFLQMNSLKPEDTAVYYCAARRFPTYDYWGQGTQVTVSS,high polyreactivity
10,QVQLVESGGGLVQAGGRLRLSCAASGFTFKKNAMGWYRQAPGKERELVAAIRSGTSTKYADSVKGRFTISRDNAKNTVYLQMNSLKPEDTAVYYCAAEEPEYLATWRNRRYDYWGQGTQVTVSS,low polyreactivity
11,QVQLVESGGGLVQAGGRLRLSCAASGFTFTNYAMGRYRQAPGKERELVAAISWNGGSTYYADSVKGRFTISRDNAKNTVYLQMNSLKPEDTAVYYCNAYDYQYFYGYEYDYWGQGTQVTVSS,high polyreactivity
12,QVQLVESGGGLVQAGGRLRLSCAASGFTFTPYAMGWYRQAPGTERELVAAISWGDGSTYYADSVKGRFTISRDNAKNTVYLQMNSLKPEDTAVYYCAAYRGPRIYRYDYWGQGTQVTVSS,high polyreactivity
13,QVQLVESGGGLVQAGGRLRLSCAASGFTFYRYAMGWYRQAPGKERELVAAITDSGDSTYYADSVKGRFTISRDNAKNTVYLQMNSVKPEDTAVYYCNTLVDLDGFEYYYWGQGTQVTVSS,high polyreactivity
14,QVQLVESGGGLVQAGGRLRLSCAASGFTIRWYTMGWYRQAPGKERELVAAISRGGSTNYADSVKGRFTISRDNAKNTVYLQMNSLKPEDTAVYYCAATVYAFTYPYDYWGQGTQVTVSS,high polyreactivity
15,QVQLVESGGGLVQAGGRLRLSCAASGFTLWGYAMGWYRQAPGKERELVASMSWSGGGTNYADSVKGRFTISRDNAKNTVYLQMNSLKPEDPAVYYCAAQYYTVSRYYGVERKFGYWGQGSQVTVSS,high polyreactivity
16,QVQLVESGGGLVQAGGRLRLSCAASGGIFGQNAMRWYRQAPGKERELVAGISASGGSTYYADSVKGRFTISRDNAKNTVYLQRNSLKPEDTAVYYCAARTKRRRYDYWGQGTQVTVSS,high polyreactivity
17,QVQLVESGGGLVQAGGRLRLSCAASGGIFIKNAMGWYRQAPGKERELVAGISSGGNTYYADSVKGRFTISRDNAKNTVYLQMNSLKPEDTAVYYCAVRYYRRFGPLYDSWGQGTHVTVSS,low polyreactivity
18,QVQLVESGGGLVQAGGRLRLSCAASGGIIWAYAMGRYRQAPGKERELVAAISSSTGTTYYADSVKGRFTISRDNAKNTVYLQMNSLKPEETAVYYCAAYAYIGDYVSYYGGDYWGQGTQVTVSS,low polyreactivity
19,QVQLVESGGGLVQAGGRLRLSCAASGGTFSSNAMGWYRQSPGKERELVAAITWSGGSTYYADSVKGRFTISRDNAKNTVYLQMNSLKPEDTAVYYCNARNQWRTVGKYDYWGQGTQVTVSS,low polyreactivity
20,QVQLVESGGGLVQAGGRLRLSCAASGIIFKYNAMGWYIQAPGKEREFVAAITGSGGSTYYADSVKGRFTISRDNAKNTVYLQMNSLKPEDTAVYYCARPQWRDWYGYWGQGTQVTVSS,low polyreactivity
